We go through five molecules from patent US20220153832A1 (PIONYR IMMUNOTHERAPEUTICS, published 2022).

The target in test [1] is T1, Cynomolgus MARCO, full length, on cells (cynomolgus, UniProt A0A2K5X0Z2 1-519).
T1 construct: whole, on cells; also called cyno MARCO; CyMARCO
T1 sequence: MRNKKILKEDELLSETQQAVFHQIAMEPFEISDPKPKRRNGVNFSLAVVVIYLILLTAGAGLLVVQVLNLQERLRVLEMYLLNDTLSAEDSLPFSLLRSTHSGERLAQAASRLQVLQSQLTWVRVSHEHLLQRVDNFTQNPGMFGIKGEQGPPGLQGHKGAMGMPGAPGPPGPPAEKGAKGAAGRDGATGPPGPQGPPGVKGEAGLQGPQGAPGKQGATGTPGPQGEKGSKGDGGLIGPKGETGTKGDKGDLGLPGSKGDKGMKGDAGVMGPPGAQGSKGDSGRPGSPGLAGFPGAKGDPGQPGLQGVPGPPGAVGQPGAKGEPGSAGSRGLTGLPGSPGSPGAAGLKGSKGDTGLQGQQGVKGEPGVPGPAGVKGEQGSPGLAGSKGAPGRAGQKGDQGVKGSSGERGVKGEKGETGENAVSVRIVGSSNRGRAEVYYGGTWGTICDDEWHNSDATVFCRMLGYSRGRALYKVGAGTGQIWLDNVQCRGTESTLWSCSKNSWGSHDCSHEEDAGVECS
Nature of the test: flow cytometry, 293T CyMARCO cells. An outline of the steps:
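Flow cytometry was used to assess antibody binding to HEK293T cells expressing human or cynomolgus MARCO. After Zombie NIR viability staining, 100,000 cells/well were incubated for 1 hr on ice with antibodies in an 8-point three-fold dilution starting at 100 nM in D-PBS/2% FBS/2 mM EDTA, then with APC goat anti-mouse IgG for 30 min on ice. Cells were acquired on an Attune NxT, and geometric mean fluorescence intensities were analysed in FlowJo and Prism.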
For orientation: Flow cytometry measures light scatter and fluorescence of single cells or particles in a stream.

Test [2] deals with T2, mouse MARCO (R&D biosystems), recombinant, coated in the LDL competition assay (mouse, UniProt Q60754 70-518, limits assumed).
T2 sequence (looked up): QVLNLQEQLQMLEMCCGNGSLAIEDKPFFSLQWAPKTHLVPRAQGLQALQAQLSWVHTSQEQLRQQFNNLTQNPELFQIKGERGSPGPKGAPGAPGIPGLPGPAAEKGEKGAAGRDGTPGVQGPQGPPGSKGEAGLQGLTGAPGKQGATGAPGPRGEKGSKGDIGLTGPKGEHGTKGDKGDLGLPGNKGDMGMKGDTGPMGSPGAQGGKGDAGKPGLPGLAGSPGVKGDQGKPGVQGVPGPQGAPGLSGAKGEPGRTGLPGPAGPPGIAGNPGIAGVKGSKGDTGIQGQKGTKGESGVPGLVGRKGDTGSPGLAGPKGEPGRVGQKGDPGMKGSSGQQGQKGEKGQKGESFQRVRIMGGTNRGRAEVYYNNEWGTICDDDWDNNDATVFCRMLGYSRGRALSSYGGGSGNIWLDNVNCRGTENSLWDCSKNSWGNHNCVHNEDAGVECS
The test is described as follows: LDL competition on coated mouse MARCO (MSD), competitor biotinylated hLDL. On the procedure:
A high-binding, 96-well MSD plate was coated with 4 μg/ml mouse MARCO or 4 μg/ml human MARCO (R&D biosystems). After the plate was blocked with PBST and 5% BSA for an hour, titrated anti-mouse or anti-human MARCO antibodies were added to the plate and incubated for 30 minutes. Biotinylated hLDL (860 pM or 2 μg/ml) were added to the antibody, and the antibody/LDL mixture was incubated for an hour to allow the mixture to reach binding equilibrium. The plates were washed and bound biotinylated LDL was detected with Sulfo-tagged streptavidin that generates an electrocheminlumenscent signal when read buffer is added and electricity is applied to the electrodes in the MSD plate. IC50's were calculated using a 4-parameter curve fit in GraphPad Prism software.

The target of test [3] is T3, N-terminally polyhistidine tagged human MARCO ECD (147-520), recombinant (human, UniProt Q9UEW3 147-520).
T3 construct: also called PI-RG-3000; recombinant human MARCO; not shown: N-terminal polyhistidine tag
T3 sequence: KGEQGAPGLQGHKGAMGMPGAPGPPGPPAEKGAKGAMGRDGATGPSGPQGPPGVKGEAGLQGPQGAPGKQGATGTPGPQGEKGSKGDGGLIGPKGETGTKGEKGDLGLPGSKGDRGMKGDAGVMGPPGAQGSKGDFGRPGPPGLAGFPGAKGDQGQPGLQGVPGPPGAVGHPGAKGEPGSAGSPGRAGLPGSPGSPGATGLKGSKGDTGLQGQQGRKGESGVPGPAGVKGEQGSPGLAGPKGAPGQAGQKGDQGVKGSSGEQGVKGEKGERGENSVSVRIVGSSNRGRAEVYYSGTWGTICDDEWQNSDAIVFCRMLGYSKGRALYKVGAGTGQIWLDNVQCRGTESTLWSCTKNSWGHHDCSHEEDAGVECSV
Nature of the test: SPR, multi cycle kinetics, huMARCO antigen. An outline of the steps:
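Antibodies were captured by anti-mouse Fc mAb amine-coupled to a CM4 chip (4500 RU target). Running buffer was 10 mM HEPES pH 7.4, 150 mM NaCl, 3 mM EDTA, 0.05% surfactant P20. Injections were at 0.625–10 nM with 90 s association and 600 s dissociation, and constants were fitted in BIAevaluation 3.1.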
(In general: Surface plasmon resonance follows binding to a sensor surface in real time, without labels.)

Test [4] deals with T3, N-terminally polyhistidine tagged human …. Nature of the test: ELISA on recombinant human MARCO, 2 mM EDTA. The procedure: After the plates were incubated at room temperature for 1 hour or 4° C. overnight, the plates were wash 3 times with ELISA wash buffer (PBS/0.05% TWEEN-20), then hybridoma supernatant (1:5 dilution) or purified antibody (1 ug) was diluted in DPBS/Ca2+/2% FBS, DPBS without Ca2+/2 mM EDTA/2% FBS, DPBS without Ca2+/10 mM EDTA/2% FBS, and DPBS without Ca2+/50 mM EDTA/2% FBS. Plates again were incubated at room temperature for 1 hour.
A general note: In an ELISA, binding on a coated surface is turned into a signal by an enzyme label.

B1: PI-HX-3021 (antibody, V domains shown)
VH: QVRLVQSGTALVRPGASVRMSCTASGYSFTDYWVSWVKQSHGQSLEWIGEIYPNSGTTNFNEKFEGKATLTVDKSTSTAYMELSRLTSEDSAIYYCTGEGTFDYWGQGVMVTVSS
VL: EIVLTQSPTTMAASPGEKVTITCRPSSSLSNMHWFQQKSGTSPKPWIYDTSKLASGVPDRFSGSGSGTSYSLTISSMEAEDAATYYCLQRSSYPPTFGAGTKLELK
notes: Rat IgG2a hybridoma antibody; Not the effector dead PI-3021; also called PI-3007 (name of the recombinant form)
A word on the EC50: it is the concentration that produces a half-maximal response. As to B1, in test [1], the binding result is “no binding”. Also, the EC50 in test [2] was found to be 0.25 nM.

B2: PI-HX-3016 (antibody, rat IgG1, V domains shown)
VH: EVQLVESGGGLVKPGASLKLSCVASGFTFSDDWMNWVRQTPGKAMEWIGDIKYDGSYTNYVPSLKNRLTISRDNAKNTLYLQMTNVRSEDTATYYCTSGGVFDYWGQGVMVTVSS
VL: EIVLSQSPTTMAASPGEKVTITCRASSSVSYMHWFQQKSGTSPKPWIYDTSKLASGVPDRFSGSGSGTSYSLTISSMEAEDAATYYCLQRSGYPPTFGAGTKLEVK
notes: Rat IgG1 hybridoma antibody
B2: the binding result in test [1] is reported as “no binding”. The EC50 in test [2] was 0.34 nM.

B3: PI-HX-3061 (antibody, rat IgG2a)
heavy: EVQLVESGGGLVQPGSSLKLSCVASKFTFSNYGMNWIRQAPKKGLEWIALIYYNSNNKYYADSVKGRFTISRDNSKNTLYLEMNSLRSEDTAMYYCAKSLTGGSDYFDSWGQGVMVTVSSAETTAPSVYPLAPGTALKSNSMVTLGCLVKGYFPEPVTVTWNSGALSSGVHTFPAVLQSGLYTLTSSVTVPSSTWPSQTVTCNVAHPASSTKVDKKIVPRNCGGDCKPCICTGSEVSSVFIFPPKPKDVLTITLTPKVTCVVVDISQDDPEVHFSWFVDDVEVHTAQTRPPEEQFNSTFRSVSELPILHQDWLNGRTFRCKVTSAAFPSPIEKTISKPEGRTQVPHVYTMSPTKEEMTQNEVSITCMVKGFYPPDIYVEWQMNGQPQENYKNTPPTMDTDGSYFLYSKLNVKKEKWQQGNTFTCSVLHEGLHNHHTEKSLSHSP
light: DVQMTQSPSYLAASPGESVSISCKASKSIGTFLAWYQEKPEKTNKLLIYSGSTLQSGTPSRFSGSGSGTDFTLTIRNLEPEDFAVYYCQQHDEYPFTFGSGTKLEIKRADAAPTVSIFPPSTEQLATGGASVVCLMNNFYPRDISVKWKIDGTERRDGVLDSVTDQDSKDSTYSMSSTLSLTKADYESHNLYTCEVVHKTSSSPVVKSFNRNEC
notes: Parental rat hybridoma, rat IgG2a; cross reactive with human and mouse MARCO
Broadly, the Kd is the equilibrium constant for the complex coming apart. Regarding B3, in test [3], the dissociation constant (Kd) worked out at 0.256 nM.

B4: PI-HX-3031 (antibody)
heavy: QVQLKESGPGLVQPSQTLSLTCTVSGFSLTSYHVSWVRQPPGKGLEWMGAIWTGGSIAYNSLLKSRLSISRDTSKSQVFLKMNSLQTEDTATYYCARDLSDYYSSYTSFDYWGQGVMVTVSTAETTAPSVYPLAPGTALKSNSMVTLGCLVKGYFPEPVTVTWNSGALSSGVHTFPAVLQSGLYTLTSSVTVPSSTWSSQAVTCNVAHPASSTKVDKKIVPRECNPCGCTGSEVSSVFIFPPKTKDVLTITLTPKVTCVVVDISQNDPEVRFSWFIDDVEVHTAQTHAPEKQSNSTLRSVSELPIVHRDWLNGKTFKCKVNSGAFPAPIEKSISKPEGTPRGPQVYTMAPPKEEMTQSQVSITCMVKGFYPPDIYTEWKMNGQPQENYKNTPPTMDTDGSYFLYSKLNVKKETWQQGNTFTCSVLHEGLHNHHTEKSLSHSP
light: DIQMTQSPASLSTSLGETVSIECLASEGISNDLAWYQQKSGKSPQLLIYAASRLQDGVPSRFSGSGSGTRYSLKISGMQPEDEADYFCQQSYKYPLTFGSGTKLEIKRADAAPTVSIFPPSTEQLATGGASVVCLMNNFYPRDISVKWKIDGTERRDGVLDSVTDQDSKDSTYSMSSTLSLTKADYESHNLYTCEVVHKTSSSPVVKSFNRNEC
notes: Parental rat hybridoma, rat IgG2a
On to B4, for which the Kd in test [3] turned out to be 0.0913 nM. Further, the “ELISA signal (A450)” value in test [4] came to 0.0678.

B5: PI-HX-3043 (antibody, rat IgG2a)
heavy: QVNLLQSRAALVKPGASVKLSCKASGYTFTDYYLHWVKQSHAKSLEWIGYINPNNAYTSYNEKFKSKATLTVDKSTNTAYMELSRLTSADSATYYCARDTTDYYNLHFAYWGQGTLVTVSSAETTAPSVYPLAPGTALKSNSMVTLGCLVKGYFPEPVTVTWNSGALSSGVHTFPAVLQSGLYTLTSSVTVPSSTWSSQAVTCNVAHPASSTKVDKKIVPRECNPCGCTGSEVSSVFIFPPKTKDVLTITLTPKVTCVVVDISQNDPEVRFSWFIDDVEVHTAQTHAPEKQSNSTLRSVSELPIVHRDWLNGKTFKCKVNSGAFPAPIEKSISKPEGTPRGPQVYTMAPPKEEMTQSQVSITCMVKGFYPPDIYTEWKMNGQPQENYKNTPPTMDTDGSYFLYSKLNVKKETWQQGNTFTCSVLHEGLHNHHTEKSLSHSP
light: DIQMTQSPASLSASLGETVSIECLTSEGISNDLAWYQQKSGKSPQLLIYDASRLEDGVPSRFSGSGSGTRYSLKISGMQTEDEADYFCQQSYKYPLTFGSGTKLEIKRADAAPTVSIFPPSTEQLATGGASVVCLMNNFYPRDISVKWKIDGTERRDGVLDSVTDQDSKDSTYSMSSTLSLTKADYESHNLYTCEVVHKTSSSPVVKSFNRNEC
notes: as for B4
Turning to B5, the “ELISA signal (A450)” value in test [4] was determined as 0.0595.
